Tests used:
[1] = target: ti10b_arath TIFY10B (UniProt Q9S7M2)
[2] = target: tif9_arath TIFY9 (UniProt Q93ZM9)
[3] = target: ti10a_arath TIFY10A (UniProt Q9LMA8)
[4] = target: tif7_arath TIFY7 (UniProt Q8W4J8)
[5] = target: tif6a_arath TIFY6A (UniProt Q58G47)
[6] = target: tif3a_arath TIFY3A (UniProt Q9M246)
[7] = target: ti11b_arath TIFY11B (UniProt Q9C9E3)
[8] = target: tif5a_arath TIFY5A (UniProt Q8LBM2)
[9] = target: tif3b_arath TIFY3B (UniProt Q9C5K8)
[10] = target: ti11a_arath TIFY11A (UniProt Q9LDU5)
Sequence of ti11a_arath TIFY11A (Q9LDU5 whole entry): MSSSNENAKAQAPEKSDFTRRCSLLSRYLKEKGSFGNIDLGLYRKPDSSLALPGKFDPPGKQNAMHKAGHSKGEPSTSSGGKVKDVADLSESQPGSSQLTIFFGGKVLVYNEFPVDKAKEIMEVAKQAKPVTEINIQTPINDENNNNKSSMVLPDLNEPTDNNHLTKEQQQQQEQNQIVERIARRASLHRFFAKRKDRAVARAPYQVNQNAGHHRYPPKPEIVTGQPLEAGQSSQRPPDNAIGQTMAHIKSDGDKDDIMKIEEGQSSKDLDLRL

[11] = target: tif6b_arath TIFY6B (UniProt Q9LVI4)
Sequence of tif6b_arath TIFY6B (Q9LVI4 whole entry): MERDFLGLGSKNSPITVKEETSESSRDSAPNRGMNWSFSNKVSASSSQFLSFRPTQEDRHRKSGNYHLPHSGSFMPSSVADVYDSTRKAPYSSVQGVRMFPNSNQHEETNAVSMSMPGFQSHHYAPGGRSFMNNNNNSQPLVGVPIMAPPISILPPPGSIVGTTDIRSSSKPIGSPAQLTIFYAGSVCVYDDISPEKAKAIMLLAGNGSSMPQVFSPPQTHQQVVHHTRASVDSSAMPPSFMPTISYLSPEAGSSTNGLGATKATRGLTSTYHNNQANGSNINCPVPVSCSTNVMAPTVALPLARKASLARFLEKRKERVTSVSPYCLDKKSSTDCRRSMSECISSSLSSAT

Measured: effect of a mutation on the interaction

Sequence of Transcription factor MYC3 (Arabidopsis thaliana (Mouse-ear cress)), Q9FIP9 F151A;L152A (Q9FIP9 whole entry F151A/L152A): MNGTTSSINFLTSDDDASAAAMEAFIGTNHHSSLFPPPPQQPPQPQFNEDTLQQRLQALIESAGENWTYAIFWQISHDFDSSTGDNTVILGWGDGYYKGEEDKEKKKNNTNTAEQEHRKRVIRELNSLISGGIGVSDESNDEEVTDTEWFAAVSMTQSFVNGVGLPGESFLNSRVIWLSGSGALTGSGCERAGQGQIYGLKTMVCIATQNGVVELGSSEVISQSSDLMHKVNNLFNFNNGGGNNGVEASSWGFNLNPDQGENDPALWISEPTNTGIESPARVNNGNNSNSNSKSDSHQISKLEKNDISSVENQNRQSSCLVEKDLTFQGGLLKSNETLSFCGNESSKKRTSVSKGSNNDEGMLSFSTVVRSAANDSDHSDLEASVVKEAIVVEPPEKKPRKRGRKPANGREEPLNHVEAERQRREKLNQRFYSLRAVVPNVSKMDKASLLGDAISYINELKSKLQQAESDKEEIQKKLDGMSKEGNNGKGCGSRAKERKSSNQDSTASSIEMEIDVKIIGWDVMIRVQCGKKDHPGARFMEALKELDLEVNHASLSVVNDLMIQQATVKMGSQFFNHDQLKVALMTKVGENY
Sequence of tif6a_arath TIFY6A (Q58G47 whole entry): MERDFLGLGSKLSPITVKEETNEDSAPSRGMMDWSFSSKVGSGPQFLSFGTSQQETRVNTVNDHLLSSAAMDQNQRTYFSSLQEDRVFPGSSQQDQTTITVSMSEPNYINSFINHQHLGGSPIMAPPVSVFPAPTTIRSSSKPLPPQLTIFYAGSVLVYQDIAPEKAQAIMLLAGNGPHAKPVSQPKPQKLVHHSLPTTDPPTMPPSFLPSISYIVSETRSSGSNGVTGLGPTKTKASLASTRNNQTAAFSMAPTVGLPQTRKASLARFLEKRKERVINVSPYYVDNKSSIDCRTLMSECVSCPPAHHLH
Sequence of tif7_arath TIFY7 (Q8W4J8 whole entry): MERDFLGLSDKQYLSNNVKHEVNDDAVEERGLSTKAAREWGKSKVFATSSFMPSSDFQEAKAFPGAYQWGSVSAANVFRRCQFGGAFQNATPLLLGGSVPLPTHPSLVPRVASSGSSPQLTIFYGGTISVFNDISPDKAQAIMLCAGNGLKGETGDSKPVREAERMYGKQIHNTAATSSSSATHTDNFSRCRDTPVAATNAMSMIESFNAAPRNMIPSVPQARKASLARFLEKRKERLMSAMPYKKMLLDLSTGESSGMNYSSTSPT
Sequence of ti10b_arath TIFY10B (Q9S7M2 whole entry): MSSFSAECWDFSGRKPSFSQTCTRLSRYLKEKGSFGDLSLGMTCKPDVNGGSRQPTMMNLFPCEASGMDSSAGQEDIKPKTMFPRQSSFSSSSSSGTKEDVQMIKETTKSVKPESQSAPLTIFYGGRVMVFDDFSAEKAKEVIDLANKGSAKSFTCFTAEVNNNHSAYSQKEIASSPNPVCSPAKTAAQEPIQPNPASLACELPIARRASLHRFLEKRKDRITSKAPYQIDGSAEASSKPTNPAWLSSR
Sequence of tif3a_arath TIFY3A (Q9M246 whole entry): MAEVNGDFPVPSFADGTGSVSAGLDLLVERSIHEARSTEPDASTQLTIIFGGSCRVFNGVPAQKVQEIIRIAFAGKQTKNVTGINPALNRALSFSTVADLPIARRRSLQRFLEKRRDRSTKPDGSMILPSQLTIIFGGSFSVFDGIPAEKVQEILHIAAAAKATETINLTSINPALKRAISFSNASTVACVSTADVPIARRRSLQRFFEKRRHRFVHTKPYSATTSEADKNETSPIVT
Sequence of tif9_arath TIFY9 (Q93ZM9 whole entry): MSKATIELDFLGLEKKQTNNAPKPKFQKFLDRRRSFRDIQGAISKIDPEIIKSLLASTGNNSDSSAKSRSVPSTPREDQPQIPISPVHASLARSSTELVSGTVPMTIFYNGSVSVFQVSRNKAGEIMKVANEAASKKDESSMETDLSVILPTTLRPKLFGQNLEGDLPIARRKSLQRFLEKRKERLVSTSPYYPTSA
Sequence of ti10a_arath TIFY10A (Q9LMA8 whole entry): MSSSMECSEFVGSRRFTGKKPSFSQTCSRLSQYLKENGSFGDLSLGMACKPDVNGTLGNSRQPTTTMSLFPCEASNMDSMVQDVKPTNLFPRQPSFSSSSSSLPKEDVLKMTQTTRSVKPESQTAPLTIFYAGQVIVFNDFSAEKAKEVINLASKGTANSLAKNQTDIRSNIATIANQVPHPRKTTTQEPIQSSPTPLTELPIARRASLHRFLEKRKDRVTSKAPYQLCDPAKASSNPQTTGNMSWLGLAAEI
Sequence of tif5a_arath TIFY5A (Q8LBM2 whole entry): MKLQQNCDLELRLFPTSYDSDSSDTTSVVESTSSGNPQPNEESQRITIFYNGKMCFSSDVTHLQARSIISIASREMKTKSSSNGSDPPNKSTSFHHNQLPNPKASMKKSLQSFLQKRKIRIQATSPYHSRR
Sequence of tif3b_arath TIFY3B (Q9C5K8 whole entry): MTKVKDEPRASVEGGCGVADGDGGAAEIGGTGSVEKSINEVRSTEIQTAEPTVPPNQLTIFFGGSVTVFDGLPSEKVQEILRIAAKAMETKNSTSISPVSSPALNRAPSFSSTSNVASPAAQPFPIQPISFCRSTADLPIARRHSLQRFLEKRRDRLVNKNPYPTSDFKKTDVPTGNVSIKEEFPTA
Sequence of ti11b_arath TIFY11B (Q9C9E3 whole entry): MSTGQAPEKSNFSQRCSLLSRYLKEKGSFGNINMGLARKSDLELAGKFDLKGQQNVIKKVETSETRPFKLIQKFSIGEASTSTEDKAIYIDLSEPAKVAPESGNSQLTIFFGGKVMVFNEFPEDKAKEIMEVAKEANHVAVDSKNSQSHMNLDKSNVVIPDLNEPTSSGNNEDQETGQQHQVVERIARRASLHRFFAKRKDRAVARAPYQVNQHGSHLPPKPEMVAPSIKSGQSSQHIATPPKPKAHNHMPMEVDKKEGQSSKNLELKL

Transcription factor MYC3 (Arabidopsis thaliana (Mouse-ear cress)), Q9FIP9 F151A;L152A
disrupting interaction strength: all assays above

— IntAct's records for PubMed 26258305
